# Patent US20200317768A1 (published 2020)
# T1: human FcγRIIaR extracellular domain, C-terminal His-tag (human, UniProt P12318 34-217)
# T1 construct: also called human FcγRIIa (type R); FcgRIIaR
# T1 chain: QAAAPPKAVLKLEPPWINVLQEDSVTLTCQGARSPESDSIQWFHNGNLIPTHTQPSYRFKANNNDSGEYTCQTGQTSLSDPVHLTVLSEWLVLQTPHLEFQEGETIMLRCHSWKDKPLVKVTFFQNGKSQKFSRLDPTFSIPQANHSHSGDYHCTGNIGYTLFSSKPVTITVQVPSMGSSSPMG
# T2: cynomolgus monkey FcγRIIb extracellular domain, C-terminal His-tag (cynomolgus monkey)
# T2 construct: also called cyno FcγRIIb; cynoFcγRIIb
# T2 chain: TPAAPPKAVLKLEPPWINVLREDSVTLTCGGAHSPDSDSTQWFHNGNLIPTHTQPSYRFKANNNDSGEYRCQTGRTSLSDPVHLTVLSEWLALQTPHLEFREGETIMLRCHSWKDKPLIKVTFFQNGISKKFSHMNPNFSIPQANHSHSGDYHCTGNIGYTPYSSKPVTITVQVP
# T3: cynomolgus monkey FcγRIIIaS extracellular domain, C-terminal His-tag (cynomolgus monkey, UniProt Q8SPW2 21-206 at identity 1.00))
# T3 construct: also called cyno FcγRIIIaS; cynoFcγRIIIaS
# T3 chain: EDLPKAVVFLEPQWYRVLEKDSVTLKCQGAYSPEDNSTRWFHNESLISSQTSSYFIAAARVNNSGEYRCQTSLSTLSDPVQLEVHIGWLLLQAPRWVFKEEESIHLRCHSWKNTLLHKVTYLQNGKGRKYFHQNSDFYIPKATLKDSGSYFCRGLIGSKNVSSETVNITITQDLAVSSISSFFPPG
# T4: cynomolgus monkey FcγRIIa2 extracellular domain, C-terminal His-tag (cynomolgus monkey)
# T4 construct: also called cyno FcγRIIa2; cynoFcgRIIa2
# T4 chain: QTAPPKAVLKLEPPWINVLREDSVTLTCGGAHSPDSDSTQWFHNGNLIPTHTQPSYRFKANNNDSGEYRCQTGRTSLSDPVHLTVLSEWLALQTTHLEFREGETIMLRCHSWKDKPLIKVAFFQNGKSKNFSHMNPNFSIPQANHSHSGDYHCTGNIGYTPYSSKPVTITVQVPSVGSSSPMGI
# T5: human FcγRIIb extracellular domain, C-terminal His-tag (human, UniProt P31994 43-217)
# T5 construct: also called human FcgRIIb; FcgRIIb
# T5 sequence: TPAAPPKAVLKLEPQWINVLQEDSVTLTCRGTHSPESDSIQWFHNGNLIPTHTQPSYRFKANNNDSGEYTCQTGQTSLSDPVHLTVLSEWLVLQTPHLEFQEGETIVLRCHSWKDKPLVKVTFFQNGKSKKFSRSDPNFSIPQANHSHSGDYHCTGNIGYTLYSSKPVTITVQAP
# T6: cynomolgus monkey FcγRIIa3 extracellular domain, C-terminal His-tag (cynomolgus monkey)
# T6 construct: also called cyno FcγRIIa3; cynoFcgRIIa3
# T6 chain: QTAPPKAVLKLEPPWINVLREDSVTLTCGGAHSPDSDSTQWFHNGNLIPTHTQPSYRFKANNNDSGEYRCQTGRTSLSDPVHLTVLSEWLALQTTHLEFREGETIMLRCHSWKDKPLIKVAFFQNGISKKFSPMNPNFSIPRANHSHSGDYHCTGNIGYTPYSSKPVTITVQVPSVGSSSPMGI
# T7: cynomolgus monkey FcγRIIa1 extracellular domain, C-terminal His-tag (cynomolgus monkey)
# T7 construct: also called cyno FcγRIIa1; cynoFcgRIIa1
# T7 chain: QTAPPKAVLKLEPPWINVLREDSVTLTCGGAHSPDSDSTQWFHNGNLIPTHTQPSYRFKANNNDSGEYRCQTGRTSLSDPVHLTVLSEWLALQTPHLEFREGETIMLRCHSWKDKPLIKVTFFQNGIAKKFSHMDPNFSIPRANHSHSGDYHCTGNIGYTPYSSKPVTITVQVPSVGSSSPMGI
# T8: human FcγRIIaH extracellular domain, C-terminal His-tag (human, UniProt P12318 34-217)
# T8 construct: also called human FcγRIIa (type H); FcgRIIaH
# T8 sequence: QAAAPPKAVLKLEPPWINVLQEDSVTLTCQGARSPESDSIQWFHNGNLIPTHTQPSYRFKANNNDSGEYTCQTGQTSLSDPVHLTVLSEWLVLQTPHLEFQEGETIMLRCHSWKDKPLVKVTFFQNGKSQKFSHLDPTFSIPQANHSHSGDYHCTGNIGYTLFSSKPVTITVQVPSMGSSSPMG
# T9: cynomolgus monkey FcγRIIa2 extracellular domain, C-terminal His-tag (cynomolgus monkey)
# T9 construct: also called cyno FcγRIIa2; FcgRIIa2
# T9 chain: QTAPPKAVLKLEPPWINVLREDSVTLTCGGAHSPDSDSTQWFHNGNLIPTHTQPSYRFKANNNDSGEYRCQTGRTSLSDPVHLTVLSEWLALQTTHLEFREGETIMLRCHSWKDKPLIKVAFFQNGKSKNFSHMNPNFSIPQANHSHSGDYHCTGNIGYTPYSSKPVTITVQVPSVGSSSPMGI
# T10: cynomolgus monkey FcγRIIa3 extracellular domain, C-terminal His-tag (cynomolgus monkey)
# T10 construct: also called cyno FcγRIIa3; FcgRIIa3
# T10 chain: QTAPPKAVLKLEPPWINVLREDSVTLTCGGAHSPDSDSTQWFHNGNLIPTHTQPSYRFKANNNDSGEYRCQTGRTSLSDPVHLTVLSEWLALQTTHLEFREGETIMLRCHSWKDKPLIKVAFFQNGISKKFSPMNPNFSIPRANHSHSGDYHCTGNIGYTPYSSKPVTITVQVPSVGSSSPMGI
# T11: cynomolgus monkey FcγRIIa1 extracellular domain, C-terminal His-tag (cynomolgus monkey)
# T11 construct: also called cyno FcγRIIa1; FcgRIIa1
# T11 chain: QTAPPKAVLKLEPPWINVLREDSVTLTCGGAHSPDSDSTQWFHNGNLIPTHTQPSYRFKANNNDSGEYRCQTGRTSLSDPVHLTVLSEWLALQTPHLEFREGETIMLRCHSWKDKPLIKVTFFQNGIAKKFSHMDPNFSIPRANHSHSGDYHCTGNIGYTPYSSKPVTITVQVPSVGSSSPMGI
# T12: cynomolgus monkey FcγRIIb extracellular domain, C-terminal His-tag (cynomolgus monkey)
# T12 construct: also called cyno FcγRIIb; cynoFcγRIIb
# T12 chain: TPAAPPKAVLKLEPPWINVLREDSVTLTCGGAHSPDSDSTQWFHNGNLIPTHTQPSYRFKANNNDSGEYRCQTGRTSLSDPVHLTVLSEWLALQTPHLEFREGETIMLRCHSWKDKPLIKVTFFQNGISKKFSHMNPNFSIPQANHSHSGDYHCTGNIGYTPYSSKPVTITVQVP
# B1: M103205H795-MY144/M103202L889-SK1 (antibody, human IgG1, kappa)
# heavy: QVTLKESGPVLVKPTETLTLTCTVSGIDLSHDDISWVRQAPGKGLEWVGIISYAGSTYYASWAKGRLTISKDTSKNQVVLTMTNMDPVDTATYYCARGVPAYSHGGDLWGQGTLVTVSSASTKGPSVFPLAPSSKSTSGGTAALGCLVKDYFPEPVTVSWNSGALTSGVHTFPAVLQSSGLYSLSSVVTVPSSSLGTQTYICNVNHKPSNTKVDKKVEPKSCDKTHTCPPCPAPELLNGPSVFLFPPKPKDTLMISRTPEVTCVVVDVSDEDPEVKFNWYVDGVEVHNAKTKPREEQYNSTYRVVSVLTVLHQDWLNGKEYKCKVSNKALPAPIEKTISKAKGQPREPQVYTLPPSREEMTKNQVSLTCLVKGFYPSDIAVEWESNGQPENNYKTTPMVLDSDGSFFLYSKLTVDKSRWQQGNVFSCSVMHEALHNHYTQKSLSLSP
# light: DIVMTQSPATLSLSPGERATLSCTSSQSVYHANWLSWFQQKPGQPPKLLIYWASTLAYGVPSRFSGSGSGTDFTLTISSLQPEDAATYYCAGGYGGGRYAFGQGTKVEIKRTVAAPSVFIFPPSDEQLKSGTASVVCLLNNFYPREAKVQWKVDNALQSGNSQESVTEQDSKDSTYSLSSTLTLSKADYEKHKVYACEVTHQGLSSPVTKSFNRGEC
# notes: P369M is read as a misprint of P396M
# B2: M103205H795-SG165/M103202L889-SK1 (antibody, human IgG1, kappa)
# heavy: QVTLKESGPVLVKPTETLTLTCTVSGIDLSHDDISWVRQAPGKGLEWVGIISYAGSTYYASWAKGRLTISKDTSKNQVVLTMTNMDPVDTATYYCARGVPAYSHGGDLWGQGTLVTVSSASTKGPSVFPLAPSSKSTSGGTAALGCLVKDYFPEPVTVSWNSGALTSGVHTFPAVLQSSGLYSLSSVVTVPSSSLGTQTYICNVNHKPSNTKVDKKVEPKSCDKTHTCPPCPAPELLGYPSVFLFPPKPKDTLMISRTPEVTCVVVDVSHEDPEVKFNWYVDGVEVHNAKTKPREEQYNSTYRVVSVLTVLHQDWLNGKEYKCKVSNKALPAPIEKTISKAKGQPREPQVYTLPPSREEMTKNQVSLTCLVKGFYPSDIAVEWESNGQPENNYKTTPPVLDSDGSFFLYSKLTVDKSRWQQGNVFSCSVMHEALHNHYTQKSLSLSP
# light: DIVMTQSPATLSLSPGERATLSCTSSQSVYHANWLSWFQQKPGQPPKLLIYWASTLAYGVPSRFSGSGSGTDFTLTISSLQPEDAATYYCAGGYGGGRYAFGQGTKVEIKRTVAAPSVFIFPPSDEQLKSGTASVVCLLNNFYPREAKVQWKVDNALQSGNSQESVTEQDSKDSTYSLSSTLTLSKADYEKHKVYACEVTHQGLSSPVTKSFNRGEC
# notes: also called G237Y
# Experiments:
# [1] = molecular target: T1, human FcγRIIaR extracellular domain, …; experiment: SPR (Biacore), antibody captured, FcgR analyte
# [2] = molecular target: T2, cynomolgus monkey FcγRIIb extracellular …; experiment: SPR (Biacore), antibody captured, FcgR analyte
# [3] = molecular target: T3, cynomolgus monkey FcγRIIIaS …; experiment: SPR (Biacore), antibody captured, FcgR analyte
# [4] = molecular target: T13, human FcγRIIIaV extracellular domain, C-terminal His-tag (human, UniProt P08637 17-208); experiment: SPR (Biacore), antibody captured, FcgR analyte
# T13 construct: also called human FcgRIIIaV; FcgRIIIaV
# T13 sequence (P08637 17-208 F176V): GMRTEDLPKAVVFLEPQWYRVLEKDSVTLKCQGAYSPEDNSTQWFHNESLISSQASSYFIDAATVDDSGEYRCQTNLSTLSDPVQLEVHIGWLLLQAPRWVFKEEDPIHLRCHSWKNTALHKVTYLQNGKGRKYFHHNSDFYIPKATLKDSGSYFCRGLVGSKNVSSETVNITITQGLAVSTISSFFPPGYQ
# [5] = molecular target: T4, cynomolgus monkey FcγRIIa2 …; experiment: SPR (Biacore), antibody captured, FcgR analyte
# [6] = molecular target: T5, human FcγRIIb extracellular domain, …; experiment: SPR (Biacore), antibody captured, FcgR analyte
# [7] = molecular target: T6, cynomolgus monkey FcγRIIa3 …; experiment: SPR (Biacore), antibody captured, FcgR analyte
# [8] = molecular target: T7, cynomolgus monkey FcγRIIa1 …; experiment: SPR (Biacore), antibody captured, FcgR analyte
# [9] = molecular target: T8, human FcγRIIaH extracellular domain, …; experiment: SPR (Biacore), antibody captured, FcgR analyte
# [10] = molecular target: T1, human FcγRIIaR extracellular domain, …; experiment: SPR (Biacore); KD of SG1 / KD of variant;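 note: relative to parent M103205H795-SG1 carrying the SG1 human heavy chain constant region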
# Description: (§1) The kinetic analysis of interactions between these antibodies and FcγR was carried out using BIACORE® T200 or BIACORE® 4000 (GE Healthcare). HBS-EP+ (GE Healthcare) was used as the running buffer, and the measurement temperature was set to 25° C. A chip produced by immobilizing Protein A. Protein A/G or mouse anti-human IgG kappa light chain (BD Biosciences) onto a Series S Sensor Chip CM4 or CM5 (GE Healthcare) by the amine-coupling method was used. […] After the measurement, the antibody captured on the chip was washed off by allowing reaction with 10 mM glycine-HCl, pH1.5 and 25 mM NaOH so that the chip was regenerated and used repeatedly. The sensorgrams obtained as measurement results were analyzed by the 1:1 Langmuir binding model using the BIACORE® Evaluation Software to calculate the binding rate constant ka (L/mol/s) and dissociation rate constant kd (l/s), and the dissociation constant KD (mol/L) was calculated from these values. […] Regarding such interactions, KD values were calculated using the following 1:1 binding model described in BIACORE® T100 Software Handbook BR1006-48 Edition AE.
# (§2) The behavior of interacting molecules according to the 1:1 binding model on BIACORE® can be described by Equation 1: Req=C·R max/(KD+C)+RI, wherein, Req is a plot of steady-state binding levels to analyte concentration. C is concentration, RI is bulk refractive index contribution in the sample, and Rmax is analyte binding capacity of the surface. When this equation is rearranged, KD can be expressed as Equation 2: KD=C·Rmax/(Req−RI)−C. KD can be calculated by substituting the values of Rmax, RI, and C into Equation 1 or Equation 2. From the current measurement conditions, RI=0, C=2 μmol/L can be used.
# [11] = molecular target: T2, cynomolgus monkey FcγRIIb extracellular …; experiment: SPR (Biacore); KD of SG1 / KD of variant;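 note: relative to parent M103205H795-SG1 carrying the SG1 human heavy chain constant region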
# Description: as §1, §2
# [12] = molecular target: T3, cynomolgus monkey FcγRIIIaS …; experiment: SPR (Biacore); KD of SG1 / KD of variant;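 note: relative to parent M103205H795-SG1 carrying the SG1 human heavy chain constant region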
# Description: as §1, §2
# [13] = molecular target: T4, cynomolgus monkey FcγRIIa2 …; experiment: SPR (Biacore); KD of SG1 / KD of variant;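 note: relative to parent M103205H795-SG1 carrying the SG1 human heavy chain constant region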
# Description: as §1, §2
# [14] = molecular target: T5, human FcγRIIb extracellular domain, …; experiment: SPR (Biacore); KD of SG1 / KD of variant
# Description: as §1, §2
# [15] = molecular target: T6, cynomolgus monkey FcγRIIa3 …; experiment: SPR (Biacore); KD of SG1 / KD of variant
# Description: as §1, §2
# [16] = molecular target: T7, cynomolgus monkey FcγRIIa1 …; experiment: SPR (Biacore); KD of SG1 / KD of variant
# Description: as §1, §2
# [17] = molecular target: T9, cynomolgus monkey FcγRIIa2 …; experiment: SPR; FcgR bound per captured antibody, normalized to SG1
# Description: as §1
# (§3) The value of the amount of FcγR binding was obtained by dividing the amount of FcγR bound by the amount of each antibody captured.
# [18] = molecular target: T10, cynomolgus monkey FcγRIIa3 …; experiment: as above
# Description: as §1, §3
# [19] = molecular target: T11, cynomolgus monkey FcγRIIa1 …; experiment: as above
# Description: as §1, §3
# [20] = molecular target: T12, cynomolgus monkey FcγRIIb extracellular …; experiment: as above
# Description: as §1, §3
Binder,Kd [1],Kd [2],Kd [3],Kd [4],Kd [5],Kd [6],Kd [7],Kd [8],Kd [9],KD fold (SG1 = 1) [10],KD fold (SG1 = 1) [11],KD fold (SG1 = 1) [12],KD fold (SG1 = 1) [13],KD fold (SG1 = 1) [14],KD fold (SG1 = 1) [15],KD fold (SG1 = 1) [16],amount of FcgR binding (SG1 = 100) [17],amount of FcgR binding (SG1 = 100) [18],amount of FcgR binding (SG1 = 100) [19],amount of FcgR binding (SG1 = 100) [20]
B1,13000 nM,440 nM,2300 nM,7700 nM,820 nM,740 nM,3800 nM,890 nM,650 nM,0.8 fold,4.1 fold,0.16 fold,5.7 fold,6.2 fold,4.5 fold,3.6 fold,,,,
B2,,,,,,,,,,,,,,,,,17 SG1 = 100,30 SG1 = 100,18 SG1 = 100,30 SG1 = 100
